Measurements published in a protein production outcome set (Wang et al. 2014).

Assay: label from the status in PepcDB records

With “TIDIDLQKEVEALLDKQIKKLRSQGAKDMDNAMMVVQNPKNGDILALAGKQINKSGKMTDYDIGTFTSQFAVGSSVKGGTLLAGYQNKAIKVGETMVDEPLHFQGGLTKRSYFNKNGHVSINDKQALMHSSNVYMFKTALKLAGDPYYSGMALPSDISSPAQKLRRGLNQVGLGVKTGIDLPNETRGQIEPLTNNPGNYLDLSIGQYDTYTPLQLSQYVSTIANDGYRIQPHIGLTIHESTNKDEVGPLKKKINGTVLNKVNNTEKEIKQIQEGFKMAFNDKDGTGYVSFKDTVVPTAGKTGTAEVFQNGEPRVNSTYIGYAPIDDPKLAFSIVYTNQPVPPPWLTGGDLGRDVINYYFKQLGKDDK” the protein production was “failed”.
With “MSTYDTAVLDDTLVSCLSQLIGAEHIDTLTLEGRFEITRIAAALSGRPGPAPRAILMSGLQGSGKTTLARALEAAGFRRLCPDEEMFRRYGHYGRDFPRGEFRVREAPVLKDIALELQELLTAGHEVVVDHGFWTREERAQWAMTVMEAGGKPVLIYLPVPHEVRWDRIRKRNEQSLVDANSIEFSEEDLLRHAGRFSPPTDDEPHIVYDGQPDSVLADIQLSRHFDALEHHHHHH” the protein production was “failed”.
For “MLSYKHSNATLPILWGEAKRGDFDDLDKAFTQLLLTIGKHRLYTHHTPPYLCAFNAFKMEFIAFDDTITSFFYKSDIDFSITPSNHNTEGFKHALDAFKAMSKSHKFVFDFKTQSQECKEFIKNRLNSSHLLSKIQIDKNNFFTIYQKWLEIVKPTIDINWEVAKTKDILDADYYLADLLSDGDKTIIEKLHTILRSSHYKLNRGVNELGKMDFMEVGFTDSQQAHQEFWSVYERPPKREFQASILERRDLLVPSDVRERKGAFFTPKIWVEKSQEYLAKALGQDYQEDCIIWDCAGGTGNLLRGLLNKANLYLSTLDHNDVAIVKDLAAKNHLKLLENHVFQFDFLNDDFFSDKTPKSLQEILKDKEKRKKLIIYINPPYAEAGNKSKMSGTGEHKAKVARDNLICEKYKNELGKANNEVFAQFFMRIYKELNGVILASFSTLKNLQGSNFKKFREIFKAKFLEGFMVPADTFDNVRGQFPIGFLVWDTSSILPKENPLNLGGNSKEEKQNSNLILDQDNLKDNPLKERFCLLDINAPNRKMCSQSRTRTKGTQKHSTAAPFETPLHTVSLEIFDSFGGFLGSKKIYTHTIDKMLTLADYLQKFQPTKRDTIFGYLDPGRNSFQHQNLIHISIIDKSKQSHVKYFPIIATTILLVSVFFSIRHCIKATWQNDRDQFYAPYDDAFQDDSEFKNNCLIFMLFHTQNRITTAQGTNHFIPFSETEVNAKERYSSHALLEFLKGEIKELKENDSLFLSAKKENKPLKFSPSASKVFDASREVYRYYHTQDFTNRPYNANASLYDIKEFFQGRNKQGKLNLPAKAKDEYYKQLYANLQDALKDLAKEIQPKVYEYGFLRE”, the protein production was “failed”.
For “MLDCIVVGAGPAGGSAAYHLARRDRQVLLLEQAQLPRQKACAGGVSPQVARWFDCDLRSVVDHGVDRLRFTWKLGDPVEAELPSEEPFWMVRRDRFDHFLVEQAANLGARIEDGAAVTAVSAEGDGWLVTVGDRAYRSRTLIAADGARGPLAQWLGFPSQKRRYAQACELDVPLPARPDSTAHFEFGLVRNGYIWVFPKSDGYSIGIGTFRGNDATDFRGLLETYLAGFGVSADLDRIVPHPLCVWDGSQPLHRGSALLVGEAASLTDPFTAEGIRPALLSGMRAAEAIDRAIAGDRNALAGYSRTIQQEWGDSMAWAKRISSVFYRVPNLGYQIGIKRPTAPQRMAQILVGELDYSDIATRVIRRLTTGFLPGMR”, the protein production was “failed”.
With “VVAPITTGYTVKISNYGWDQSDKFVKIYITLTGVHQVPTENVQVHFTERSFDLLVKNLNGKSYSMIVNNLLKPISVEGSSKKVKTDTVLILCRKKVENTRWDYLTQVEKECKEK” the protein production was “not failed”.
In the case of “MEMSKQLGKKFNLLTLLAYAAPTMALMLFMSIYTMVDGMFIARYVGATALSAVNIFFPIYGLIIAIALMLGTGANAIIAKKIGENNEEEAKENFTFIVICGAVLGLVITVFGLLLMEPILLMLGAGATEELFDFTYTYAKIILCTSPFMILQMLFQNFFVTAGKPNLGLTITVVGGVANIVLDYVFIVLLQMGIAGAGIATAIGIFIPAAYGFVYFIYNKESGLHFVKPKVDGKVLLNSCINGSSEMVSNLASSIVTFAFNLLMIKHLGVDGVAAITIMLYVMFILSSISMGYSAGVAPIISYNYGSKNSSQLKRVFNYSLLIIVIGSVTMYGVSMMFGAYFIQFMAPEGSAVYHIAIEGLNIFSISFLFMGFNIFSSMVFTAFSNGKISAAISFLRTLVFVLASLWILPAILGVTGIWLAIPLAEILSVIVCIFFLTHYRNDYHYA”, the protein production is reported as “failed”.
In the case of “MGLNIKPLVVSVLGSVLLAGCATAPPKQQDNLCEIFREKSGWYDDAKYMEKEWGTPIHVAMAIIKQESSFRHDAKPPKDYVLGFIPWGRVSSAYGYAQAQDPAWDDFQDSTGQGGSRSNFDDSIMFVGWYTHETRRQLGISLWDPYNQYLAYHEGRGGYKRGTYKRKPSLMKVARRVEQTAKTYGWQLKQCRQELEDNSSWFF”, the protein production is reported as “failed”.
For “GLTTPLRELVENGFREGRIKIISSTPTLAAGLNLPARRVIIRSYRRYSSDSGMQPIPVLEYKQMAGRAGRPRLDPYGEAVLLAKSYEEFVFLFEKYIEAGAEDIWSKLGTENALRTHILSTISNGFA”, the protein production was “failed”.
For “MSAFHIRAEQSRDISAIHDVTEAAFTGIEHSDGTEQDLVDKLRAAKALSLSLVAEADGEVIGHIAASEVLIGGGVQGWFGIGPVSVRPDKQQQGVGIALMGSALDQLRAEGAGGIVLLGDPGYYRRFGFEVVPGLVYPDAPAEFFMAVCLNAPAFPQGVVEYHSAFGG”, the protein production was “failed”.
With “MDTAIILGLLVAVFYGVGTFFAKIVCEKNPLFQWIVVNIVGIILCLIILLKYKNIIITDQKILTYAIISAVLVVIGSLLLYYALYKGKASIVVPLSSIGPAITVALSILFLKETLTLPQMIGIVLIIIGIILLSISN” the protein production was “failed”.
In the case of “MVLLEKLWDDVVAGPQPDRGLGRLRKITTQPINIRDIGEGSSSKVVMHRSLTMPAAVSPGTPTTPTTPTTPRKDNVWRSVFNPGSNLATRAIGSNIFDKPTHPNSPSVYDWLYSGDSRSQHR”, the protein production is reported as “failed”.
With “MFRALKDKKRFIRNLILTFIIFLFIFLLYQFEAFRDIIFIVLVSGIFAYILKPLYRFLCERTKINKNFLAMAIVLSVIFLILFFLTVLIPSMFKEGESFDGLINGIEFFINDLIMKMKFMELGIFDVIEAQVTEKLNILLVSFATSIINNLISFSENILAFAVIPVLAYYFLAYGDLLSNKFLYCCPMEKRALLKNLGRDVDKVLGKYILGQLLLSLLVGVMTFIGMLILGIKFPLLLAFLNALLNIIPYFGAVLGAIPAIVVALVEGPNKILWVILTFLIIQQIEGNLIAPKITAESIDMHPILIIILLLIGEQIGGLLGMVFIVPIAVVIKVLFDDWDYYMFL” the protein production was “failed”.
In the case of “MMNDSKARYGSITRFFHWSMAILVSWQFLKFFDRINDGEHWVGETLVPWHISIGSLILVLIVLRLGWTVKEKGNRPEHGSIIGVLAKIGHGLLYVALVLMPVTGIFYMVGNGYGLSAFNLEIIAKGEEVSWLINIGSLHSYIAWGLLFLVAGHIGMAFVHQFIIKDGTLKRMM”, the protein production is reported as “failed”.
For “MNGYVYLVGAGPGDEGLITKKAIECLKRADIVLYDRLLNPFFLSYTKQTCELMYCGKMPKNHIMRQEMINAHLLQFAQEGKIVVRLKGGDPSIFGRVGEEAETLAAANIPYEIVPGITSSTAASSYAGIPLTHRNYSNSVTLLTGHAKGSLTDHGKYNSSHNSDTIAYYMGIKNLPTICKNLRQAGKKEDTPVAVIEWGTTGKQRVVTGTLSTIVSIVKNENISNPSMTIVGDVVSLRDQIAWKEHKPLHGKKVLFTSATNKTSVMKQKLQEAGAEIYQIPTFKKEEYTLTLEQIIEIFNVNRLVFCSAESVEILMQSCSKYKKDIRSLQAELQHMNVATQEKLMQYGLLSKEAKFSSDTTVYLGRNINRIAFIQEKIGAGSYMMTHKYTIDHRFDEVHSRMLSEFLWDSIVFEGRASIDTFLAEVKRLGFLDIVTLPFSYTDVPTLRYANKVGFHNIDHQLQETLMQKDMVRQ”, the protein production was “failed”.
In the case of “MHILSMIKSQLKLLFNNRLAVFAIILAPILLTFLVSYSSSSNSKTNVYFADQDNTEASRQLVNMLKNNHDLNLISSSESEIKNKVDDDNITVGVLINKGFGYKLQNNKALDITLIEDYDSVDGEKLSDIILSTENTLQKVNLDSKSISRVLSSNESSISNKIIKKINNGSGVKLLYKNLKSSQNVEDKNAQNLIGFLLMFLWFIVIQGFRTLIEEKENNTFNRIKGTPTNYSKYLLSKIIANYIFGMIIIAIILIVGKYGLKSKIINNVGPEIAILSIYLFSIVGLVMIFVPFVKKHQTFTIIGAAIMVLTGLLGGSFFSMDELQLPKAIEIISKFMPETWGIKSLKEVVFNNLSLGSQSQTILVLGIAGIVGLLISTIIVKIIDRTEKNF”, the protein production is reported as “failed”.
In the case of “MVERTAVFPAGRHSLYAEHRYSAAIRSGDLLFVSGQVGSREDGTPEPDFQQQVRLAFDNLHATLAAAGCTFDDIIDVTSFHTDPENQFEDIMTVKNEIFSAPPYPNWTAVGVTWLAGFDFEIKVIARIPEQ”, the protein production is reported as “not failed”.
In the case of “MSDKFNQFINRVLSHEGGYANHPKDPGGETNWGITKRTAQANGYNGSMRAMTREQAISIYRKAFWERYRADQMPEAVAFQFFDACVNHGYGNAARMLQRAAGVPDDGVIGAVSLKAINSLPENDLLLRFNAERLVFYTKLGTFTSFGKGWVRRVAQNLIHASADNTD”, the protein production is reported as “not failed”.
For “MKPVFLDFEQPIAELTNKIDELRFVQDESAVDISDEIHRLQKKSNDLTKSIFSKLTPAQISQVSRHPQRPYTLDYIEALFTDFEELHGDRHFADDYAIVGGLARFNGQSVMVVGHQKGRDTKEKIRRNFGMPRPEGYRKALRLMKTAEKFGLPVMTFIDTPGAYPGIGAEERGQSEAIGKNLYELTRLRVPVLCTVIGEGGSGGALAVALGDYVNMLQYSTYSVISPEGCASILWKTAEKAADAAQALGITADRLQKLDLVDTVIKEPLGGAHRDFGQTMKNVKAVLEKQLHEAQSIPLADLLSRRFDRIMAYGKFSEQ”, the protein production was “not failed”.
In the case of “SAAPGPALCLFDVDGTLTAPRQKITKEMDDFLQKLRQKIKIGVVGGSDFEKVQEQLGNDVVEKYDYVFPENGLVAYKDGKLLCRQNIQSHLGEALIQDLINYCLSYIAKIKLPKKRGTFIEFRNGMLNVSPIGRSCSQEERIEFYELDKKENIRQKFVADLRKEFAGKGLTFSIGGQISFDVFPDGWDKRYCLRHVENDGYKTIYFFGDKTMPGGNDHEIFTDPRTMGYSVTAPEDTRRICELLFS”, the protein production is reported as “not failed”.
In the case of “MDWDDEYSHNSFDLHCLLNSFPGDLEFEQIFSDIDEKIEQNAASIKHCIKEIQSEINKQCPGVQLQTTTDCFEWLTNYNYSTSESSFISHGDLIKFFKTLQDLLKNEQNQEEMTLDLLWDLSCHSSVSFPSTLSGTSFHFLSRTSLHSVEDNSSMDVKSMWDDIRLHLRRFLVSKLQSHNEINNSQQKILLKKQCLQQLLFLYPESEVIIKYQNIQNKLLANLLWNCFPSYNRDSNLDVIAHGYQSTMLKLYSVIKEDFNTLCEILAPSSMVKFIKETYLDTVTEEMAKFLENFCELQFRENAVRVVKTSKSSSKHRGAVHALG”, the protein production is reported as “not failed”.
With “MEFPDLTVEIKGPDVVGVNKLAEYEVHVKNLGGIGVPSTKVRVYINGTLYKNWTVSLGPKEEKVLTFNWTPTQEGMYRINATVDEENTVVELNENNNVATFLEHHHHHH” the protein production was “not failed”.
In the case of “GSLKCILLNQAEELPIEFLPKDGVYGKGKLFDSRNMEIENFTESDILQDARRAAEAHRRARYRVQSIVRPGITLLEIVRSIEDSTRTLLKGERNNGIGFPAGMSMNSCAAHYTVNPGEQDIVLKEDDVLKIDFGTHSDGRIMDSAFTVAFKENLEPLLVAAREGTETGIKSLGVDVRVCDIGRDINEVISSYEVEIGGRMWPIRPISDLHGHSISQFRIHGGISIPAVNNRDTTRIKGDSFYAVETFATTGKGSIDDRPPCSHFVLNTYKSRKLFNKDLIKVYEFVKDSLGTLPFSPRHLDYYGLVKGGSLKSVNLLTMMGLLTPYPPLNDIDGCKVAQFEHTVYLSEHGKEVLTRGDDY”, the protein production is reported as “not failed”.
